In series [1] the test system is HeLa Kyoto. Briefly: solubility in G1/S (NP-40 vs SDS abundance) (log2 ratio); higher = more soluble. The following applies: cell cycle stage: G1/S.
In series [2] the test system is HeLa Kyoto. Briefly: melting temperature (median over replicates), in situ; higher = more thermally stable.
In series [3] the test system is HeLa Kyoto. Briefly: solubility change mitosis vs G1/S (difference of NP-40 vs SDS log2 ratios) (log2 ratio difference); higher = more soluble in mitosis.
Series [4] has as its system HeLa Kyoto. Nature of the series: thermal stability score vs G1/S (z-score of summed log2 fold changes over temperatures); higher = more thermally stable than in G1/S.
[5] abbreviates: cell cycle stage: early G1 (4.5 h after nocodazole release).

Seven sequences from the supplement of paper PMC5998384 can be followed below.
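For melting temperature (median over replicates), in situ in this document: HeLa Kyoto cells synchronized by double thymidine or nocodazole block, proteins quantified by TMT10plex mass spectrometry, three independent biological replicates.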
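For solubility change mitosis vs G1/S (difference of NP-40 vs SDS log2 ratios) in this document: synchronized HeLa Kyoto cells (double thymidine block for G1/S, nocodazole release for mitosis), protein amounts in NP-40 versus SDS lysates quantified by mass spectrometry, three biological replicates.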
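For solubility in G1/S (NP-40 vs SDS abundance) in this document: HeLa Kyoto cells arrested at G1/S by double thymidine block, proteins quantified by TMT10plex mass spectrometry in mild NP-40 versus SDS extracts, three biological replicates.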
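For thermal stability score vs G1/S (z-score of summed log2 fold changes over temperatures) in this document: synchronized HeLa Kyoto cells, proteins quantified by TMT10plex mass spectrometry, three biological replicates, mitosis taken 0.5 h after nocodazole release, G1/S directly after double thymidine block.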

With “MPVKGGTKCIKYLLFGFNFIFWLAGIAVLAIGLWLRFDSQTKSIFEQETNNNNSSFYTGVYILIGAGALMMLVGFLGCCGAVQESQCMLGLFFGFLLVIFAIEIAAAIWGYSHKDEVIKEVQEFYKDTYNKLKTKDEPQRETLKAIHYALNCCGLAGGVEQFISDICPKKDVLETFTVKSCPDAIKEVFDNKFHIIGAVGIGIAVVMIFGMIFSMILCCAIRRNREMV [CD9]”, the “solubility in G1/S (log2)” value with HeLa Kyoto [1] was -0.0106. Moreover, the melting temperature was 62.4 °C in the series with HeLa Kyoto [2] (cell cycle stage: G1/S) and 60.4 °C in the series on HeLa Kyoto [2] (cell cycle stage: mitosis). In addition, in the series on HeLa Kyoto [3], the “solubility change mitosis (log2)” value is -0.149. In addition, the results for the thermal stability score with HeLa Kyoto [4] (setting [5]) and in the series with HeLa Kyoto [4] (cell cycle stage: mitosis) were 2.82 and 0.357, respectively.
As for “MEKARRGGDGVPRGPVLHIVVVGFHHKKGCQVEFSYPPLIPGDGHDSHTLPEEWKYLPFLALPDGAHNYQEDTVFFHLPPRNGNGATVFGISCYRQIEAKALKVRQADITRETVQKSVCVLSKLPLYGLLQAKLQLITHAYFEEKDFSQISILKELYEHMNSSLGGASLEGSQVYLGLSPRDLVLHFRHKVLILFKLILLEKKVLFYISPVNKLVGALMTVLSLFPGMIEHGLSDCSQYRPRKSMSEDGGLQESNPCADDFVSASTADVSHTNLGTIRKVMAGNHGEDAAMKTEEPLFQVEDSSKGQEPNDTNQYLKPPSRPSPDSSESDWETLDPSVLEDPNLKEREQLGSDQTNLFPKDSVPSESLPITVQPQANTGQVVLIPGLISGLEEDQYGMPLAIFTKGYLCLPYMALQQHHLLSDVTVRGFVAGATNILFRQQKHLSDAIVEVEEALIQIHDPELRKLLNPTTADLRFADYLVRHVTENRDDVFLDGTGWEGGDEWIRAQFAVYIHALLAATLQLDNEKILSDYGTTFVTAWKNTHNYRVWNSNKHPALAEINPNHPFQGQYSVSDMKLRFSHSVQNSERGKKIGNVMVTTSRNVVQTGKAVGQSVGGAFSSAKTAMSSWLSTFTTSTSQSLTEPPDEKP [AVL9]”, the “solubility in G1/S (log2)” value with HeLa Kyoto [1] came to 0.0785. In addition, the melting temperature in the series with HeLa Kyoto [2] (cell cycle stage: G1/S) is 54.3 °C; in the series on HeLa Kyoto [2] (cell cycle stage: mitosis), 54.1 °C. The “solubility change mitosis (log2)” value in the series with HeLa Kyoto [3] was -0.155. For the same sequence, the thermal stability score in the series with HeLa Kyoto [4] (setting [5]) is 0.365; with HeLa Kyoto [4] (cell cycle stage: mitosis), 0.676.
Take “MAEVKVKVQPPDADPVEIENRIIELCHQFPHGITDQVIQNEMPHIEAQQRAVAINRLLSMGQLDLLRSNTGLLYRIKDSQNAGKMKGSDNQEKLVYQIIEDAGNKGIWSRDIRYKSNLPLTEINKILKNLESKKLIKAVKSVAASKKKVYMLYNLQPDRSVTGGAWYSDQDFESEFVEVLNQQCFKFLQSKAETARESKQNPMIQRNSSFASSHEVWKYICELGISKVELSMEDIETILNTLIYDGKVEMTIIAAKEGTVGSVDGHMKLYRAVNPIIPPTGLVRAPCGLCPVFDDCHEGGEISPSNCIYMTEWLEF [POLR3F]”: the “solubility in G1/S (log2)” value in the series with HeLa Kyoto [1] was determined as 0.528. Besides, the values for the melting temperature in the series with HeLa Kyoto [2] (cell cycle stage: G1/S) and in the series on HeLa Kyoto [2] (cell cycle stage: mitosis) were 52.4 °C and 52.7 °C, respectively. Further, in the series on HeLa Kyoto [3], the “solubility change mitosis (log2)” value is -0.0255. Further, the thermal stability score in the series with HeLa Kyoto [4] (setting [5]) was -0.67; in the series on HeLa Kyoto [4] (cell cycle stage: mitosis), -1.78.
On to “MNNSGADEIGKLFVGGLDWSTTQETLRSYFSQYGEVVDCVIMKDKTTNQSRGFGFVKFKDPNCVGTVLASRPHTLDGRNIDPKPCTPRGMQPERTRPKEGWQKGPRSDNSKSNKIFVGGIPHNCGETELREYFKKFGVVTEVVMIYDAEKQRPRGFGFITFEDEQSVDQAVNMHFHDIMGKKVEVKRAEPRDSKSQAPGQPGASQWGSRVVPNAANGWAGQPPPTWQQGYGPQGMWVPAGQAIGGYGPPPAGRGAPPPPPPFTSYIVSTPPGGFPPPQGFPQGYGAPPQFSFGYGPPPPPPDQFAPPGVPPPPATPGAAPLAFPPPPSQAAPDMSKPPTAQPDFPYGQYAGYGQDLSGFGQGFSDPSQQPPSYGGPSVPGSGGPPAGGSGFGRGQNHNVQGFHPYRR [DAZAP1]”, for which the “solubility in G1/S (log2)” value in the series on HeLa Kyoto [1] amounted to 0.412. Also, the melting temperature in the series with HeLa Kyoto [2] (cell cycle stage: G1/S) amounted to 53.6 °C; with HeLa Kyoto [2] (cell cycle stage: mitosis), 53.7 °C. For the same sequence, the “solubility change mitosis (log2)” value with HeLa Kyoto [3] was -0.0921. In addition, the figures for the thermal stability score in the series on HeLa Kyoto [4] (setting [5]) and in the series on HeLa Kyoto [4] (cell cycle stage: mitosis) were -1.35 and -1.24, respectively.
In the case of “MERASLIQKAKLAEQAERYEDMAAFMKGAVEKGEELSCEERNLLSVAYKNVVGGQRAAWRVLSSIEQKSNEEGSEEKGPEVREYREKVETELQGVCDTVLGLLDSHLIKEAGDAESRVFYLKMKGDYYRYLAEVATGDDKKRIIDSARSAYQEAMDISKKEMPPTNPIRLGLALNFSVFHYEIANSPEEAISLAKTTFDEAMADLHTLSEDSYKDSTLIMQLLRDNLTLWTADNAGEEGGEAPQEPQS [SFN]”, in the series with HeLa Kyoto [1], the “solubility in G1/S (log2)” value was found to be 0.311. The melting temperature amounted to 52.6 °C with HeLa Kyoto [2] (cell cycle stage: G1/S) and 53.1 °C with HeLa Kyoto [2] (cell cycle stage: mitosis). For the same sequence, in the series with HeLa Kyoto [3], the “solubility change mitosis (log2)” value came to 0.358. For the same sequence, the thermal stability score with HeLa Kyoto [4] (setting [5]) was -2.86; in the series on HeLa Kyoto [4] (cell cycle stage: mitosis) it was -2.25.
“MVLNSLDKMIQLQKNTANIRNICVLAHVDHGKTTLADCLISSNGIISSRLAGKLRYMDSREDEQIRGITMKSSAISLHYATGNEEYLINLIDSPGHVDFSSEVSTAVRICDGCIIVVDAVEGVCPQTQAVLRQAWLENIRPVLVINKIDRLIVELKFTPQEAYSHLKNILEQINALTGTLFTSKVLEERAERETESQVNPNSEQGEQVYDWSTGLEDTDDSHLYFSPEQGNVVFTSAIDGWGFGIEHFARIYSQKIGIKKEVLMKTLWGDYYINMKAKKIMKGDQAKGKKPLFVQLILENIWSLYDAVLKKDKDKIDKIVTSLGLKIGAREARHSDPKVQINAICSQWLPISHAVLAMVCQKLPSPLDITAERVERLMCTGSQTFDSFPPETQALKAAFMKCGSEDTAPVIIFVSKMFAVDAKALPQNKPRPLTQEEIAQRRERARQRHAEKLAAAQGQAPLEPTQDGSAIETCPKGEEPRGDEQQVESMTPKPVLQEENNQESFIAFARVFSGVARRGKKIFVLGPKYSPLEFLRRVPLGFSAPPDGLPQVPHMAYCALENLYLLMGRELEYLEEVPPGNVLGIGGLQDFVLKSATLCSLPSCPPFIPLNFEATPIVRVAVEPKHPSEMPQLVKGMKLLNQADPCVQILIQETGEHVLVTAGEVHLQRCLDDLKERFAKIHISVSEPIIPFRETITKPPKVDMVNEEIGKQQKVAVIHQMKEDQSKIPEGIQVDSDGLITITTPNKLATLSVRAMPLPEEVTQILEENSDLIRSMEQLTSSLNEGENTHMIHQKTQEKIWEFKGKLEQHLTGRRWRNIVDQIWSFGPRKCGPNILVNKSEDFQNSVWTGPADKASKEASRYRDLGNSIVSGFQLATLSGPMCEEPLMGVCFVLEKWDLSKFEEQGASDLAKEGQEENETCSGGNENQELQDGCSEAFEKRTSQKGESPLTDCYGPFSGQLIATMKEACRYALQVKPQRLMAAMYTCDIMATGDVLGRVYAVLSKREGRVLQEEMKEGTDMFIIKAVLPVAESFGFADEIRKRTSGLASPQLVFSHWEIIPSDPFWVPTTEEEYLHFGEKADSENQARKYMNAVRKRKGLYVEEKIVEHAEKQRTLSKNK [EFTUD1]”: the “solubility in G1/S (log2)” value in the series with HeLa Kyoto [1] was -0.156. Also, the melting temperature in the series with HeLa Kyoto [2] (cell cycle stage: G1/S) amounted to 50.3 °C; with HeLa Kyoto [2] (cell cycle stage: mitosis), 50 °C. In addition, the “solubility change mitosis (log2)” value in the series on HeLa Kyoto [3] was -0.154. Besides, the thermal stability score in the series on HeLa Kyoto [4] (setting [5]) was 0.0185; with HeLa Kyoto [4] (cell cycle stage: mitosis), -0.212.
With “MERAESSSTEPAKAIKPIDRKSVHQICSGQVVLSLSTAVKELVENSLDAGATNIDLKLKDYGVDLIEVSDNGCGVEEENFEGLTLKHHTSKIQEFADLTQVETFGFRGEALSSLCALSDVTISTCHASAKVGTRLMFDHNGKIIQKTPYPRPRGTTVSVQQLFSTLPVRHKEFQRNIKKEYAKMVQVLHAYCIISAGIRVSCTNQLGQGKRQPVVCTGGSPSIKENIGSVFGQKQLQSLIPFVQLPPSDSVCEEYGLSCSDALHNLFYISGFISQCTHGVGRSSTDRQFFFINRRPCDPAKVCRLVNEVYHMYNRHQYPFVVLNISVDSECVDINVTPDKRQILLQEEKLLLAVLKTSLIGMFDSDVNKLNVSQQPLLDVEGNLIKMHAADLEKPMVEKQDQSPSLRTGEEKKDVSISRLREAFSLRHTTENKPHSPKTPEPRRSPLGQKRGMLSSSTSGAISDKGVLRPQKEAVSSSHGPSDPTDRAEVEKDSGHGSTSVDSEGFSIPDTGSHCSSEYAASSPGDRGSQEHVDSQEKAPKTDDSFSDVDCHSNQEDTGCKFRVLPQPTNLATPNTKRFKKEEILSSSDICQKLVNTQDMSASQVDVAVKINKKVVPLDFSMSSLAKRIKQLHHEAQQSEGEQNYRKFRAKICPGENQAAEDELRKEISKTMFAEMEIIGQFNLGFIITKLNEDIFIVDQHATDEKYNFEMLQQHTVLQGQRLIAPQTLNLTAVNEAVLIENLEIFRKNGFDFVIDENAPVTERAKLISLPTSKNWTFGPQDVDELIFMLSDSPGVMCRPSRVKQMFASRACRKSVMIGTALNTSEMKKLITHMGEMDHPWNCPHGRPTMRHIANLGVISQN [PMS2]”, the “solubility in G1/S (log2)” value with HeLa Kyoto [1] was -0.0345. Besides, the melting temperature amounted to 48.3 °C with HeLa Kyoto [2] (cell cycle stage: G1/S) and 49.7 °C with HeLa Kyoto [2] (cell cycle stage: mitosis). In addition, in the series on HeLa Kyoto [3], the “solubility change mitosis (log2)” value is -0.029. Also, the thermal stability score in the series on HeLa Kyoto [4] (setting [5]) was determined as 1.02; in the series with HeLa Kyoto [4] (cell cycle stage: mitosis), 1.74.
